Results on 1 substance are retold here after publication PMC3099546.

In data set [1] the test system is CSC[C@H](NC(=O)CC[C@H](N)C(=O)O)C(=O)NCC(=O)O. Nature of the data set: glutamate release assay, Km of hydrolysis. Type of data set: biochemical, Homo sapiens.
Data set [2] concerns N[C@@H](CCC(=O)N[C@@H](CSCc1ccc([N+](=O)[O-])cc1)C(=O)NCC(=O)O)C(=O)O. Nature of the data set: glutamate release assay, Km of hydrolysis. Type of data set: biochemical, Homo sapiens.
Data set [3] deals with CCCCC/C=C\C\C=C/C=C/C=C/[C@@H](SC[C@H](NC(=O)CC[C@H](N)C(=O)O)C(=O)NCC(=O)O)[C@@H](O)CCCC(=O)O. Description: purified protein. As to conditions: substrate binding site.

For the substance “gamma-glutamyl transpeptidase (GGT1) (Homo sapiens)”, in data set [1], the Km is 9.90 ± 0.07 µM, the kcat worked out at 95 ± 3.33 s⁻¹ and the kcat/Km worked out at 9.5e+06 ± 333000 M⁻¹ s⁻¹. For the same substance, in data set [2], the Km was 13.10 ± 0.05 µM, the kcat was 103 ± 6.67 s⁻¹ and the catalytic efficiency (kcat/Km) was 7.83e+06 ± 500000 M⁻¹ s⁻¹. Moreover, in data set [3], the Km was found to be 10.8 ± 0.1 µM, the kcat came to 88.3 s⁻¹ and the kcat/Km amounted to 8.17e+06 M⁻¹ s⁻¹.

Broadly, the Km is the substrate concentration at which the rate is half of its maximum. A word on the kcat: it is the maximal rate divided by the concentration of active sites. Broadly, the kcat/Km is the second-order rate constant that governs catalysis at low substrate concentration.
